Consider one molecule from US20080227698A1, “OLIGOPEPTIDES FOR TREATMENT OF OSTEOPOROSIS AND OTHER BONE DISEASES AND METHODS THEREOF” (Washington University, priority 2005, published 2008).

The target of one experiment is LRP5 (Homo sapiens, UniProt O75197). The experiment can be described thus: ^125I-Mesd binding to HEK293 cells transiently transfected with LRP5. The note with it: ^125I-Mesd 5 nM, 4 hours at 4° C., HEK293 cells transfected with Myc-tagged LRP5. As for the experimental part: (§1) Cells (2×10^5) were seeded into 12-well dishes 1 day prior to assay. Ligand-binding buffer (minimal Eagle's medium containing 0.6% BSA with a different concentration of radioligand, 0.6 ml/well) was added to cell monolayers, in the absence or the presence of 500 nM unlabeled RAP or 500 nM unlabeled Mesd, followed with incubation for 0-4 hours at 4° C. Thereafter, overlying buffer containing unbound ligand was removed, and cell monolayers were washed and lysed in low-SDS lysis buffer (62.5 mM Tris-HCl pH 6.8, 0.2% SDS, 10% v/glycerol) and counted.
Chain of LRP5 (O75197 32-1615): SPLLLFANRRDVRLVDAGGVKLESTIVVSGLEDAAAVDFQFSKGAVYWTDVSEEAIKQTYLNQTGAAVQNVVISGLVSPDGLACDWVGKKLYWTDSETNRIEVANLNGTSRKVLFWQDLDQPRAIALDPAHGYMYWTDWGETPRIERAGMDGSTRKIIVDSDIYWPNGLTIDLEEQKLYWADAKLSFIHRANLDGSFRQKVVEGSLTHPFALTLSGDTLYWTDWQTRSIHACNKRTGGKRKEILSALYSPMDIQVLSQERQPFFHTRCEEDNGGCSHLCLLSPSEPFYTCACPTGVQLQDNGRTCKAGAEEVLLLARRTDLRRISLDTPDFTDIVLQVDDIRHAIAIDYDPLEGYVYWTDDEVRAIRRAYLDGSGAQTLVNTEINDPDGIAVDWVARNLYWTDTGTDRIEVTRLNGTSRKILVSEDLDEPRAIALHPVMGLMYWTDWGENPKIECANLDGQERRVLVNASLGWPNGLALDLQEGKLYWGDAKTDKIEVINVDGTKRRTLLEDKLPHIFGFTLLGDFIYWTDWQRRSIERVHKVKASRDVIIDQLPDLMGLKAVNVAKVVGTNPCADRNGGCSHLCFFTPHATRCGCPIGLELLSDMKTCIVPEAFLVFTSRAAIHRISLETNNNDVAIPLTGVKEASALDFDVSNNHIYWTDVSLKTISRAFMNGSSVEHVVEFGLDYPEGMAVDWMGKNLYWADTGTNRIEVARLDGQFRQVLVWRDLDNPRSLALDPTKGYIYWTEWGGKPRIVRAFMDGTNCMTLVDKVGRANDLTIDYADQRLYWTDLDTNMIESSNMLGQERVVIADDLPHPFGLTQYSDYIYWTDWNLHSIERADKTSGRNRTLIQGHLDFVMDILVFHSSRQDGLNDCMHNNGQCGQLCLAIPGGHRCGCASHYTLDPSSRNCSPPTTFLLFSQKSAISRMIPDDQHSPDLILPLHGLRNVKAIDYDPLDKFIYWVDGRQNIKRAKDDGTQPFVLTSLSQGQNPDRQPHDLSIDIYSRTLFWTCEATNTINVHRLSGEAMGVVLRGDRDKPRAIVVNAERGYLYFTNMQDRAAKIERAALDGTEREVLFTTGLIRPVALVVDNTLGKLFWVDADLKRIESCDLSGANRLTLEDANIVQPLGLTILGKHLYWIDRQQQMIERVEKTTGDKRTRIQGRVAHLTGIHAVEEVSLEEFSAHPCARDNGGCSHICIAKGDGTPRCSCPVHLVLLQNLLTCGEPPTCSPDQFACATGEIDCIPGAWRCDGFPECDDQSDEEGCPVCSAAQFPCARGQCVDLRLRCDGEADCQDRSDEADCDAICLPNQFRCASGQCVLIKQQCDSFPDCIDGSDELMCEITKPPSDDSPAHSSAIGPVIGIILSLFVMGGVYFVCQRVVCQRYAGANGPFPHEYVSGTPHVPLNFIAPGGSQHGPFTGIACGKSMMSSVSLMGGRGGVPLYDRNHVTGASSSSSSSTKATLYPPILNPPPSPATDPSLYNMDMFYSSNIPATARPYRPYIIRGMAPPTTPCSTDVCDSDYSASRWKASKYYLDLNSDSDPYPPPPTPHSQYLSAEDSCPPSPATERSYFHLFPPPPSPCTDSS
To determine whether Mesd binds to other members of the LDLR family, ^125I-Mesd binding analysis was performed with four groups of cells expressing different members of the LDLR family (FIG. 2). In the first experiment, HEK293 cells were transiently transfected with cDNAs for the LDLR, LRP5, LRP6 or empty pcDNA3 vector. […]

For experiment [1], the target named is T1, LRP6 (Homo sapiens, UniProt O75581). The experiment in a line: ^125I-RAP binding to LRP6-transduced HT1080 cells and control cells. The arrangement: plasmid pCS-Myc-hLRP6 containing the full-length human LRP6 cDNA; HA; expressed in transfected cells; host or cells: human HT1080 cells, stably transduced (pLNCX2 retroviral vector). On the procedure: as §1
T1 sequence (O75581 20-1613): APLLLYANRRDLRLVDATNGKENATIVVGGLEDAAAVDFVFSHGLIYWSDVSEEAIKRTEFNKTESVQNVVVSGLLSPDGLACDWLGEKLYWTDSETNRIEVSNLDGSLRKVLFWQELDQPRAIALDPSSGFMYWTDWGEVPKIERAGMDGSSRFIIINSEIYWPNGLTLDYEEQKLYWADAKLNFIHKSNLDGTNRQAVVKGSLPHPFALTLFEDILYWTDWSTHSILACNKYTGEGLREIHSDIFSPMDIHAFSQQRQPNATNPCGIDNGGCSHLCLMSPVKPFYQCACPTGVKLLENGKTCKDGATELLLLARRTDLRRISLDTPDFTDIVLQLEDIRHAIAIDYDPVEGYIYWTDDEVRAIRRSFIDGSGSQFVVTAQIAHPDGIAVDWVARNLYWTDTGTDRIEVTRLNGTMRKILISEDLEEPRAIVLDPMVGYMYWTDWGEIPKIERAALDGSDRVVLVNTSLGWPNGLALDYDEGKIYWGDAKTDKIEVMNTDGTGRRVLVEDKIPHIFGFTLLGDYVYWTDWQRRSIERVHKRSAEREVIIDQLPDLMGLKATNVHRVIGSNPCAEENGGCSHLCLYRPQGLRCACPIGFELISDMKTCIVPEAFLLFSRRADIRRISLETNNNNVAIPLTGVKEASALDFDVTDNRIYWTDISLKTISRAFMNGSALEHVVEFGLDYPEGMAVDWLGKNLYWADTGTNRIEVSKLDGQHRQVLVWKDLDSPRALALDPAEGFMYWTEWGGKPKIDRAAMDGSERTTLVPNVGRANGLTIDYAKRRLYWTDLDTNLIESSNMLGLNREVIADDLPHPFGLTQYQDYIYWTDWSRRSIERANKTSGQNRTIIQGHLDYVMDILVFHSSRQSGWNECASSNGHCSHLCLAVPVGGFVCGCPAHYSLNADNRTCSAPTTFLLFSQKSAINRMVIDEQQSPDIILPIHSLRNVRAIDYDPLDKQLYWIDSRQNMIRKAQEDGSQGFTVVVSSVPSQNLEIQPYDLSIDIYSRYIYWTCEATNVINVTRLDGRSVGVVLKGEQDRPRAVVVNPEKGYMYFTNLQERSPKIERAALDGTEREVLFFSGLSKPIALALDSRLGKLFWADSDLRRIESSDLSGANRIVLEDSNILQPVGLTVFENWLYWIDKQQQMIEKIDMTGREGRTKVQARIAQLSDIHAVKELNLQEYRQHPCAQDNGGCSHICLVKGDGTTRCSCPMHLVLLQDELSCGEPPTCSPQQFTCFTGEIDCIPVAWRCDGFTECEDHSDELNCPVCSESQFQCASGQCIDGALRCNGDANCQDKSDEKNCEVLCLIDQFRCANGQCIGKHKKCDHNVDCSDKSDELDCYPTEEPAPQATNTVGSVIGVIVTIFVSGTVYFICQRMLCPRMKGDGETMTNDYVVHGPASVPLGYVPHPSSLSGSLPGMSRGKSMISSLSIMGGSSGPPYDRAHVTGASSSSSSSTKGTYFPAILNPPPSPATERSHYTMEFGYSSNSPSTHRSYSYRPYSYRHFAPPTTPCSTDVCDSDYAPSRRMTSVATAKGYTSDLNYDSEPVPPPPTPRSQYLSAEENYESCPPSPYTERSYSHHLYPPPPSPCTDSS
Receptor-associated protein (RAP) binds with high affinity to LRP, megalin, VLDLR and apoER2, and with a lower affinity to the LDLR (Bu, G., Int. Rev. Cytol. 209, 79-116. 2001). To determine whether RAP and Mesd bind to identical, overlapping, or different sites on the receptors, binding and competition analysis of these two chaperones with HT1080 cells stably expressing LRP6 was performed.
In FIG. 8A, binding of ^125I-RAP (5 nM) to LRP6-transduced HT1080 cells and the control cells was carried out for 4 hours at 4° C. in the absence (total) or presence of 500 nM RAP, or 500 nM Mesd. In FIG. 8B, binding of ^125I-Mesd (5 nM) to LRP6-transduced HT1080 cells was carried out for 2 hours at 4° C. in the absence (total) or presence of various concentrations of RAP or 500 nM Mesd. (C) LRP6-mediated ^125I-Mesd (5 nM) degradation was carried out for 4 hours at 37° C. in the absence or presence of 500 nM Mesd or 500 nM RAP. Values are the means of triple determinations with the s.d. indicated by error bars.

For experiment [2], the target named is T1, LRP6. The experiment in a line: ^125I-Mesd binding to LRP6, competition by Mesd or oligopeptide (FIG. 10C). More on the design: plasmid pCS-Myc-hLRP6 containing the full-length human LRP6 cDNA; HA; expressed in transfected cells; host or cells: human HT1080 cells, stably transduced (pLNCX2 retroviral vector). As to conditions: compared with LRP5 (up to about 10-fold). As for the experimental part: In order to investigate the binding of Mesd polypeptide and an Mesd oligopeptide to either LRP5 or LRP6, binding assays were performed using ^125I-Mesd or ^125I-DKK1 (FIG. 10).

B1: Mesd: recombinant wild-type mouse Mesd, polyhistidine tail at the N-terminus, lacks the signal peptide, expressed in E. coli (protein)
chain: ADTPGEATPPPRKKKDIRDYNDADMARLLEQWEKDDDIEEGDLPEHKRPSAPIDFSKLDPGKPESILKMTKKGKTLMMFVTVSGNPTEKETEEITSLWQGSLFNANYDVQRFIVGSDRAIFMLRDGSYAWEIKDFLVSQDRCAEVTLEGQMYPGKGGGSKEKNKTKPEKAKKKEGDRKPRASKEDNRAGSRREDL
modifications: left off: small tags and cut ends
notes: recombinant wild-type mouse Mesd, polyhistidine tail at the N-terminus, lacks the signal peptide, expressed in E. coli
As to B1, the “Specific ^125I-Mesd binding to LRP5” value with LRP5 is given as “specifically binds to Mesd, albeit at lower levels compared to LRP6”. In addition, in the experiment with LRP6 [1] (500 nM competitor, control cells expressing vector alone, 4° C.), the “Effect of excess unlabeled competitor on ^125I-RAP binding to control cells” value was “not”. In addition, the “Effect on the LRP6-dependent increase of ^125I-RAP binding” value with LRP6 [1] (excess unlabeled Mesd (500 nM), 4 hours at 4° C.) was “abolished”. The “Reduction of binding of ^125I-Mesd to LRP6” value with LRP6 [2] is listed as “even greater reduction”.
